Assay results: patent US20240181007A1, “COMPOSITIONS AND METHODS FOR TREATING PULMONARY HYPERTENSION” (Acceleron Pharma Inc., priority 2021, published 2024)

Legend:
BMP9 [1] = target: T1, BMP9 (UniProt Q9UK05 320-429); test: cell-based or functional assay
T1 sequence (looked up): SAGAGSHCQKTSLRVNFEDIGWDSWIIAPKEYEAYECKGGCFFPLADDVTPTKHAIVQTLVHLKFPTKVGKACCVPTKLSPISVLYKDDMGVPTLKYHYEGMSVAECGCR

GDF11 [2] = target: T2, GDF11 (UniProt O95390 299-407); test: cell-based or functional assay
T2 construct: also called Growth and differentiation factor-11; BMP11
T2 sequence (looked up): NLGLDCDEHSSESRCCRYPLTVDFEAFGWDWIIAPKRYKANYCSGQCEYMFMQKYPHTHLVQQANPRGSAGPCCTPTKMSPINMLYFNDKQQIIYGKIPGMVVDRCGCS

activin A [3] = target: T3, activin A (UniProt P08476 311-426); test: cell-based or functional assay
T3 construct: Soluble ligand injected in SPR or added in the reporter assay
T3 sequence (looked up): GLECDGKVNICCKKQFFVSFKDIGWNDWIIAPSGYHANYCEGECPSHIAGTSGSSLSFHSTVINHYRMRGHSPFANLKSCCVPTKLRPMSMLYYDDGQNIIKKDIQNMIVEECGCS

BMP9 [4] = target: T4, BMP9 (Homo sapiens, UniProt Q9UK05); test: Biacore-based binding assay (surface plasmon resonance), BMP9; settings: for binding to BMP9 compared to unmodified ActRIIB-Fc (in words): SPR 37° C., compared to ActRIIB-G1Fc / ActRIIB-Fc homodimer
T4 sequence (Q9UK05 320-429): T1 sequence (looked up)
Procedure: (§1) To determine ligand binding profiles of variant ActRIIB-Fc homodimers, a Biacore™-based binding assay was used to compare ligand binding kinetics of certain variant ActRIIB-Fc polypeptides. ActRIIB-Fc polypeptides to be tested were independently captured onto the system using an anti-Fc antibody. Ligands were then injected and allowed to flow over the captured receptor protein. ActRIIB-G1Fc was used as the control polypeptide.
as §1, with “protein.” for “protein. ActRIIB-G1Fc was used as the control polypeptide.”
(§2) A Biacore™-based binding assay was used to compare the ligand binding kinetics of an ActRIIB-Fc:ActRIIB(L79E)-Fc heterodimer with those of unmodified ActRIIB-Fc homodimer. Fusion proteins were captured onto the system using an anti-Fc antibody. Ligands were then injected and allowed to flow over the captured receptor protein at 37° C. Results are summarized in the table below, in which ligand off-rates (kd) most indicative of effective ligand traps are denoted in bold.

Activin A [5] = target: T5, Activin A (Homo sapiens, UniProt P08476); test: Biacore-based binding assay (surface plasmon resonance), activin A; settings: for activin A binding compared to ActRIIB-G1Fc (in words): FIGS. 8A and 8B
T5 sequence (P08476 311-426): T3 sequence (looked up)
Procedure: as §1
as §1, with “protein.” for “protein. ActRIIB-G1Fc was used as the control polypeptide.”
as §2

Activin B = target: T6, Activin B (Homo sapiens, UniProt P09529); test: Biacore-based binding assay (surface plasmon resonance), activin B; settings: for affinity for activin B compared to unmodified ActRIIB-Fc (in words): SPR 37° C., compared to ActRIIB-G1Fc / ActRIIB-Fc homodimer
T6 sequence (P09529 293-407): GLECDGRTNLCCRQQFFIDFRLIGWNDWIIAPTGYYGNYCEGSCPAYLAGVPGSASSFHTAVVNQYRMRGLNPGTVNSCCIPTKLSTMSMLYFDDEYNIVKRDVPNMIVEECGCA
Procedure: as §1, §2

BMP10 = target: T7, BMP10 (Homo sapiens, UniProt O95393); test: Biacore-based binding assay (surface plasmon resonance), BMP10; settings: for BMP10 binding compared to ActRIIB-G1Fc (in words): FIGS. 8A and 8B
T7 sequence (O95393 317-424): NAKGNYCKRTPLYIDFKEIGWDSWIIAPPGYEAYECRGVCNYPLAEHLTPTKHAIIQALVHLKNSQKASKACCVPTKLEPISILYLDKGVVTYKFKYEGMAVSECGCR
Procedure: as §1, §2

GDF11 [6] = target: T8, GDF11 (Homo sapiens, UniProt O95390); test: Biacore-based binding assay (surface plasmon resonance), GDF11; settings: for GDF11 binding compared to unmodified ActRIIB-Fc (in words): SPR 37° C., compared to ActRIIB-G1Fc / ActRIIB-Fc homodimer
T8 sequence (O95390 299-407): T2 sequence (looked up)
Procedure: as §1
as §1, with “protein.” for “protein. ActRIIB-G1Fc was used as the control polypeptide.”
as §2

GDF8 = target: T9, GDF8 (Homo sapiens, UniProt O14793); test: Biacore-based binding assay (surface plasmon resonance), GDF8; settings: for GDF8 binding compared to unmodified ActRIIB-Fc (in words): SPR 37° C., compared to ActRIIB-G1Fc / ActRIIB-Fc homodimer
T9 sequence (O14793 267-375): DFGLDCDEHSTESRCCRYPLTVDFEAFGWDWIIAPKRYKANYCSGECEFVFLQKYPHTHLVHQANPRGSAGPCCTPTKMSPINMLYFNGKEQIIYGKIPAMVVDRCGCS
Procedure: as §1, §2

GDF3 = target: T10, GDF3 (Homo sapiens, UniProt Q9NR23); test: Biacore-based binding assay (surface plasmon resonance), GDF3; settings: 37° C., capture by anti-Fc antibody
T10 sequence (Q9NR23 251-364): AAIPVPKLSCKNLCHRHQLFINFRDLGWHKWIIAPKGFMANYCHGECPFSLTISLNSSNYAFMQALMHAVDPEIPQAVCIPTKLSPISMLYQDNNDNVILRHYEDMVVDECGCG
Procedure: as §2

BMP6 = target: T11, BMP6 (Homo sapiens, UniProt P22004); test: Biacore-based binding assay (surface plasmon resonance), BMP6
T11 sequence (P22004 375-513): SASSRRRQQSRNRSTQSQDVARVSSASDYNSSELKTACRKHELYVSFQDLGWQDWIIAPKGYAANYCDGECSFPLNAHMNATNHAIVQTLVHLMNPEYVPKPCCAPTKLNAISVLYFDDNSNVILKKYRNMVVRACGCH
Procedure: as §2

[7] = 37° C., capture by anti-Fc antibody, Transient*: indeterminate due to transient nature of interaction
[8] = 37° C., capture by anti-Fc antibody

## K55D (homodimeric ActRIIB-Fc construct) (Fc fusion)
BMP9 [1]
  IC50 (ng/ml), A204 CAGA12 luciferase reporter assay: 5500 ng/mL
GDF11 [2]
  IC50 (ng/ml), A204 CAGA12 luciferase reporter assay: 365 ng/mL
Activin A [3]
  IC50 (ng/ml), A204 CAGA12 luciferase reporter assay: 396 ng/mL

## K55R (homodimeric ActRIIB-Fc construct) (Fc fusion)
BMP9 [1]
  IC50 (ng/ml), A204 CAGA12 luciferase reporter assay: 777 ng/mL
GDF11 [2]
  IC50 (ng/ml), A204 CAGA12 luciferase reporter assay: 318 ng/mL
Activin A [3]
  IC50 (ng/ml), A204 CAGA12 luciferase reporter assay: 206 ng/mL

## L79H-F82I: homodimeric ActRIIB-G1Fc fusion with L79H and F82I substitutions; mature SEQ ID NO: 341
BMP9 [4]
  binding to BMP9 compared to unmodified ActRIIB-Fc (in words): decrease in binding to BMP9
Activin A [5]; SPR 37° C.
  activin A binding compared to ActRIIB-G1Fc (in words): significant decrease
Activin B
  affinity for activin B compared to unmodified ActRIIB-Fc (in words): relatively high affinity for activin B
BMP10; SPR 37° C.
  BMP10 binding compared to ActRIIB-G1Fc (in words): decrease in BMP10 binding

## L79H-F82K: homodimeric ActRIIB-G1Fc fusion with L79H and F82K substitutions; mature SEQ ID NO: 347
BMP9 [4]
  binding to BMP9 compared to unmodified ActRIIB-Fc (in words): decrease in binding to BMP9
Activin A [5]; SPR 37° C.
  activin A binding compared to ActRIIB-G1Fc (in words): significant decrease
GDF11 [6]
  GDF11 binding compared to unmodified ActRIIB-Fc (in words): significant decrease in GDF8 and GDF11 binding
GDF8
  GDF8 binding compared to unmodified ActRIIB-Fc (in words): significant decrease in GDF8 and GDF11 binding
Activin B
  affinity for activin B compared to unmodified ActRIIB-Fc (in words): relatively high affinity for activin B
BMP10; SPR 37° C.
  BMP10 binding compared to ActRIIB-G1Fc (in words): decrease in BMP10 binding

## L79H: homodimeric ActRIIB-G1Fc fusion with L79H substitution; mature SEQ ID NO: 344
BMP9 [4]
  binding to BMP9 compared to unmodified ActRIIB-Fc (in words): decrease in binding to BMP9
Activin A [5]; SPR 37° C.
  activin A binding compared to ActRIIB-G1Fc (in words): significant decrease
Activin B
  affinity for activin B compared to unmodified ActRIIB-Fc (in words): relatively high affinity for activin B
BMP10; SPR 37° C.
  BMP10 binding compared to ActRIIB-G1Fc (in words): decrease in BMP10 binding

B1: ActRIIB-Fc:ActRIIB(L79E)-Fc heterodimer: heteromeric complex of unmodified human ActRIIB-Fc and ActRIIB(L79E)-Fc, each fused to a G1Fc domain with linker (protein)
chain 1: GRGEAETRECIYYNANWELERTNQSGLERCEGEQDKRLHCYASWRNSSGTIELVKKGCWEDDFNCYDRQECVATEENPQVYFCCCEGNFCNERFTHLPEAGGPEVTYEPPPTAPTGGGTHTCPPCPAPELLGGPSVFLFPPKPKDTLMISRTPEVTCVVVDVSHEDPEVKFNWYVDGVEVHNAKTKPREEQYNSTYRVVSVLTVLHQDWLNGKEYKCKVSNKALPAPIEKTISKAKGQPREPQVYTLPPSREEMTKNQVSLTCLVKGFYPSDIAVEWESNGQPENNYDTTPPVLDSDGSFFLYSDLTVDKSRWQQGNVFSCSVMHEALHNHYTQKSLSLSPG
chain 2: GRGEAETRECIYYNANWELERTNQSGLERCEGEQDKRLHCYASWRNSSGTIELVKKGCWLDDFNCYDRQECVATEENPQVYFCCCEGNFCNERFTHLPEAGGPEVTYEPPPTAPTGGGTHTCPPCPAPELLGGPSVFLFPPKPKDTLMISRTPEVTCVVVDVSHEDPEVKFNWYVDGVEVHNAKTKPREEQYNSTYRVVSVLTVLHQDWLNGKEYKCKVSNKALPAPIEKTISKAKGQPREPQVYTLPPSRKEMTKNQVSLTCLVKGFYPSDIAVEWESNGQPENNYKTTPPVLKSDGSFFLYSKLTVDKSRWQQGNVFSCSVMHEALHNHYTQKSLSLSPGK
BMP9 [4]; [7]
  ka BMP9: Transient*
  kd BMP9: Transient*
BMP9 [4]
  binding to BMP9 compared to unmodified ActRIIB-Fc (in words): even greater reduction in the strength of binding to BMP9
Activin A [5]; [8]
  ka Activin A: 8.8e+06 M⁻¹ s⁻¹
  kd Activin A: 0.0015 s⁻¹
Activin A [5]; SPR 37° C.
  off-rate for activin A compared to ActRIIB-Fc homodimer: approximately ten-fold faster off-rates
GDF11 [6]; [8]
  ka GDF11: 4e+07 M⁻¹ s⁻¹
  kd GDF11: 0.00036 s⁻¹
GDF11 [6]
  GDF11 binding compared to unmodified ActRIIB-Fc (in words): largely retained high-affinity binding
GDF8; [8]
  ka GDF8: 3.4e+06 M⁻¹ s⁻¹
  kd GDF8: 0.0005 s⁻¹
GDF8
  GDF8 binding compared to unmodified ActRIIB-Fc (in words): largely retained high-affinity binding
Activin B; [8]
  ka Activin B: 8.3e+06 M⁻¹ s⁻¹
  kd Activin B: 0.00021 s⁻¹
Activin B
  affinity for activin B compared to unmodified ActRIIB-Fc (in words): largely retained high-affinity binding
GDF3
  ka GDF3: 580000 M⁻¹ s⁻¹
  kd GDF3: 0.0059 s⁻¹
BMP10; [8]
  ka BMP10: 4.8e+07 M⁻¹ s⁻¹
  kd BMP10: 0.002 s⁻¹
BMP10; SPR 37° C.
  off-rate for BMP10 compared to ActRIIB-Fc homodimer: approximately ten-fold faster off-rates
BMP6; [8]
  ka BMP6: 3.3e+08 M⁻¹ s⁻¹
  kd BMP6: 0.018 s⁻¹
BMP6; SPR 37° C.
  BMP6 binding compared to ActRIIB-Fc homodimer (in words): largely retained high-affinity binding
